US20160102129A1 (Novo Nordisk, published 2016)
*1 amine or outer side, *2 acyl side, *3 side chain or, on linkers, in order; H or OH if unused. Where no end group is shown, it is not given here. Side-chain parts run from the residue outwards. [ ]: non-standard residue; d: D form. The star is where a group is joined. C18 diacid = O=C(O)CCCCCCCCCCCCCCCCC(=O)*; γGlu = O=C(O)[C@H](CCC(=O)[*:2])N[*:1]; Desaminohistidyl = O=C(CCc1c[nH]cn1)*; Ac4c = NC1(C(=O)O)CCC1; AEEA = NCCOCCOCC(=O)O; Aib = CC(C)(N)C(=O)O

B1: N^ε34-[2-[[(2S)-2-[[(2S)-4-carboxy-2-[[2-[[(2S)-2-[[(4S)-4-carboxy-4-[[(4S)-4-carboxy-4-(17-carboxyheptadecanoylamino)butanoyl]amino]butanoyl]amino]-3-hydroxypr … (peptide)
peptide: [Desaminohistidyl][Aib]HGTFTSDVSKYLEEQAAREFIAWLLK([Gly-Ser-Glu-Gly-Ser-γGlu-γGlu-C18 diacid])T-NH2
B2: N^ε22-[(4S)-4-carboxy-4-[[(4S)-4-carboxy-4-[[2-[2-[2-[[2-[2-[2-[[(4S)-4-carboxy-4-(17-carboxyheptadecanoylamino)butanoyl]amino]ethoxy]ethoxy]acetyl]amino]ethoxy … (peptide)
peptide: [Desaminohistidyl][Ac4c]HGTFTSDVSKYLEK([γGlu-γGlu-AEEA-AEEA-γGlu-C18 diacid])RAAREFIAWLLKT-NH2
SMILES: CC[C@H](C)[C@H](NC(=O)[C@H](Cc1ccccc1)NC(=O)[C@H](CCC(=O)O)NC(=O)[C@H](CCCNC(=N)N)NC(=O)[C@H](C)NC(=O)[C@H](C)NC(=O)[C@H](CCCNC(=N)N)NC(=O)[C@H](CCCCNC(=O)CC[C@H](NC(=O)CC[C@H](NC(=O)COCCOCCNC(=O)COCCOCCNC(=O)CC[C@H](NC(=O)CCCCCCCCCCCCCCCCC(=O)O)C(=O)O)C(=O)O)C(=O)O)NC(=O)[C@H](CCC(=O)O)NC(=O)[C@H](CC(C)C)NC(=O)[C@H](Cc1ccc(O)cc1)NC(=O)[C@H](CCCCN)NC(=O)[C@H](CO)NC(=O)[C@@H](NC(=O)[C@H](CC(=O)O)NC(=O)[C@H](CO)NC(=O)[C@@H](NC(=O)[C@H](Cc1ccccc1)NC(=O)[C@@H](NC(=O)CNC(=O)[C@H](Cc1c[nH]cn1)NC(=O)C1(NC(=O)CCc2c[nH]cn2)CCC1)[C@@H](C)O)[C@@H](C)O)C(C)C)C(=O)N[C@@H](C)C(=O)N[C@@H](Cc1c[nH]c2ccccc12)C(=O)N[C@@H](CC(C)C)C(=O)N[C@@H](CC(C)C)C(=O)N[C@@H](CCCCN)C(=O)N[C@H](C(N)=O)[C@@H](C)O
B3: N^ε22-[(4S)-4-carboxy-4-[[(4S)-4-carboxy-4-[[2-[2-[2-[[2-[2-[2-[[(4S)-4-carboxy-4-(17-carboxyheptadecanoylamino)butanoyl]amino]ethoxy]ethoxy]acetyl]amino]ethoxy … (peptide)
peptide: [Desaminohistidyl][Ac4c]HGTFTSDVSKYLEK([γGlu-γGlu-AEEA-AEEA-γGlu-C18 diacid])QAAREFIAWLLKT-NH2
SMILES: CC[C@H](C)[C@H](NC(=O)[C@H](Cc1ccccc1)NC(=O)[C@H](CCC(=O)O)NC(=O)[C@H](CCCNC(=N)N)NC(=O)[C@H](C)NC(=O)[C@H](C)NC(=O)[C@H](CCC(N)=O)NC(=O)[C@H](CCCCNC(=O)CC[C@H](NC(=O)CC[C@H](NC(=O)COCCOCCNC(=O)COCCOCCNC(=O)CC[C@H](NC(=O)CCCCCCCCCCCCCCCCC(=O)O)C(=O)O)C(=O)O)C(=O)O)NC(=O)[C@H](CCC(=O)O)NC(=O)[C@H](CC(C)C)NC(=O)[C@H](Cc1ccc(O)cc1)NC(=O)[C@H](CCCCN)NC(=O)[C@H](CO)NC(=O)[C@@H](NC(=O)[C@H](CC(=O)O)NC(=O)[C@H](CO)NC(=O)[C@@H](NC(=O)[C@H](Cc1ccccc1)NC(=O)[C@@H](NC(=O)CNC(=O)[C@H](Cc1c[nH]cn1)NC(=O)C1(NC(=O)CCc2c[nH]cn2)CCC1)[C@@H](C)O)[C@@H](C)O)C(C)C)C(=O)N[C@@H](C)C(=O)N[C@@H](Cc1c[nH]c2ccccc12)C(=O)N[C@@H](CC(C)C)C(=O)N[C@@H](CC(C)C)C(=O)N[C@@H](CCCCN)C(=O)N[C@H](C(N)=O)[C@@H](C)O
B4: N^ε23-[2-[2-[2-[[2-[2-[2-[[(4S)-4-carboxy-4-(17-carboxyheptadecanoylamino)butanoyl]amino]ethoxy]ethoxy]acetyl]amino]ethoxy]ethoxy]acetyl]-[Imp7,Aib8,His9,Lys18, … (peptide)
peptide: [Desaminohistidyl][Aib]HGTFTSDVSKYLEGK([AEEA-AEEA-γGlu-C18 diacid])AAREFIAWLLKT-NH2
SMILES: CC[C@H](C)[C@H](NC(=O)[C@H](Cc1ccccc1)NC(=O)[C@H](CCC(=O)O)NC(=O)[C@H](CCCNC(=N)N)NC(=O)[C@H](C)NC(=O)[C@H](C)NC(=O)[C@H](CCCCNC(=O)COCCOCCNC(=O)COCCOCCNC(=O)CC[C@H](NC(=O)CCCCCCCCCCCCCCCCC(=O)O)C(=O)O)NC(=O)CNC(=O)[C@H](CCC(=O)O)NC(=O)[C@H](CC(C)C)NC(=O)[C@H](Cc1ccc(O)cc1)NC(=O)[C@H](CCCCN)NC(=O)[C@H](CO)NC(=O)[C@@H](NC(=O)[C@H](CC(=O)O)NC(=O)[C@H](CO)NC(=O)[C@@H](NC(=O)[C@H](Cc1ccccc1)NC(=O)[C@@H](NC(=O)CNC(=O)[C@H](Cc1c[nH]cn1)NC(=O)C(C)(C)NC(=O)CCc1c[nH]cn1)[C@@H](C)O)[C@@H](C)O)C(C)C)C(=O)N[C@@H](C)C(=O)N[C@@H](Cc1c[nH]c2ccccc12)C(=O)N[C@@H](CC(C)C)C(=O)N[C@@H](CC(C)C)C(=O)N[C@@H](CCCCN)C(=O)N[C@H](C(N)=O)[C@@H](C)O
B5: N^ε23-[2-[2-[2-[[2-[2-[2-[[(4S)-4-carboxy-4-(17-carboxyheptadecanoylamino)butanoyl]amino]ethoxy]ethoxy]acetyl]amino]ethoxy]ethoxy]acetyl]-[Imp7,Aib8,His9,Tyr16, … (peptide)
peptide: [Desaminohistidyl][Aib]HGTFTSDYSKYLEGK([AEEA-AEEA-γGlu-C18 diacid])AAREFIAWLLKT-NH2
SMILES: CC[C@H](C)[C@H](NC(=O)[C@H](Cc1ccccc1)NC(=O)[C@H](CCC(=O)O)NC(=O)[C@H](CCCNC(=N)N)NC(=O)[C@H](C)NC(=O)[C@H](C)NC(=O)[C@H](CCCCNC(=O)COCCOCCNC(=O)COCCOCCNC(=O)CC[C@H](NC(=O)CCCCCCCCCCCCCCCCC(=O)O)C(=O)O)NC(=O)CNC(=O)[C@H](CCC(=O)O)NC(=O)[C@H](CC(C)C)NC(=O)[C@H](Cc1ccc(O)cc1)NC(=O)[C@H](CCCCN)NC(=O)[C@H](CO)NC(=O)[C@H](Cc1ccc(O)cc1)NC(=O)[C@H](CC(=O)O)NC(=O)[C@H](CO)NC(=O)[C@@H](NC(=O)[C@H](Cc1ccccc1)NC(=O)[C@@H](NC(=O)CNC(=O)[C@H](Cc1c[nH]cn1)NC(=O)C(C)(C)NC(=O)CCc1c[nH]cn1)[C@@H](C)O)[C@@H](C)O)C(=O)N[C@@H](C)C(=O)N[C@@H](Cc1c[nH]c2ccccc12)C(=O)N[C@@H](CC(C)C)C(=O)N[C@@H](CC(C)C)C(=O)N[C@@H](CCCCN)C(=O)N[C@H](C(N)=O)[C@@H](C)O
B6: N^ε34-[2-[2-[2-[[2-[2-[2-[[(4S)-4-carboxy-4-[[(4S)-4-carboxy-4-(17-carboxyheptadecanoylamino)butanoyl]amino]butanoyl]amino]ethoxy]ethoxy]acetyl]amino]ethoxy]eth … (peptide)
peptide: [Desaminohistidyl][Aib]HGTFTSDLSKYLEEQAAREFIAWLLK([Ado-Ado-γGlu-γGlu-C18 diacid])T-NH2
B7: N^ε34-[2-[2-[2-[[2-[2-[2-[[(4S)-4-carboxy-4-[[(4S)-4-carboxy-4-(17-carboxyheptadecanoylamino)butanoyl]amino]butanoyl]amino]ethoxy]ethoxy]acetyl]amino]ethoxy]eth … (peptide)
peptide: [Desaminohistidyl][Aib]HGTFTSDVSKYLEEQAAREFIAWLIK([Ado-Ado-γGlu-γGlu-C18 diacid])T-NH2
B8: N^ε22-[(4S)-4-carboxy-4-[[(4S)-4-carboxy-4-[[2-[2-[2-[[2-[2-[2-[[(4S)-4-carboxy-4-(17-carboxyheptadecanoylamino)butanoyl]amino]ethoxy]ethoxy]acetyl]amino]ethoxy … (peptide)
peptide: [Desaminohistidyl][Aib]HGTFTSDVSKYLEK([γGlu-γGlu-AEEA-AEEA-γGlu-C18 diacid])QAAREFIAWLLKGGG
B9: N^ε36-[2-[[(2S)-2-[[(2S)-4-carboxy-2-[[2-[[(2S)-2-[[(4S)-4-carboxy-4-[[(4S)-4-carboxy-4-(17-carboxyheptadecanoylamino)butanoyl]amino]butanoyl]amino]-3-hydroxypr … (peptide)
peptide: [Desaminohistidyl][Aib]HGTFTSDYSKYLEEQAAREFIAWLLKGK([Gly-Ser-Glu-Gly-Ser-γGlu-γGlu-C18 diacid])G
B10: N^ε34-[2-[2-[2-[[2-[2-[2-[[(4S)-4-carboxy-4-[[(4S)-4-carboxy-4-[[(4S)-4-carboxy-4-(17-carboxyheptadecanoylamino)butanoyl]amino]butanoyl]amino]butanoyl]amino]eth … (peptide)
peptide: [Desaminohistidyl]AHGTFTSDVSKYLEGRAAREFIAWLLK([Ado-Ado-γGlu-γGlu-γGlu-C18 diacid])GGG
B11: N^ε34-[2-[2-[2-[[2-[2-[2-[[(4S)-4-carboxy-4-[[(4S)-4-carboxy-4-[[(4S)-4-carboxy-4-(17-carboxyheptadecanoylamino)butanoyl]amino]butanoyl]amino]butanoyl]amino]eth … (peptide)
chain: [Desaminohistidyl]AHGTFTSDVSRYLEGRAAREFIAWLLK([Ado-Ado-γGlu-γGlu-γGlu-C18 diacid])
B12: N^ε34-[2-[[(2S)-2-[[(2S)-4-carboxy-2-[[2-[[(2S)-2-[[(4S)-4-carboxy-4-[[(4S)-4-carboxy-4-(17-carboxyheptadecanoylamino)butanoyl]amino]butanoyl]amino]-3-hydroxypr … (peptide)
peptide: [Desaminohistidyl][Aib]HGTFTSDVSKYLEEQAAREFIAWLLK([Gly-Ser-Glu-Gly-Ser-γGlu-γGlu-C18 diacid])T
notes: Named as peptide, not peptide amide (C-terminal acid)
B13: N^ε34-[2-[2-[2-[[2-[2-[2-[[(4S)-4-carboxy-4-[[(4S)-4-carboxy-4-[[(4S)-4-carboxy-4-(17-carboxyheptadecanoylamino)butanoyl]amino]butanoyl]amino]butanoyl]amino]eth … (peptide)
peptide: [Desaminohistidyl][Aib]HGTFTSDVSKYLEEQAAREFIAWLLK([Ado-Ado-γGlu-γGlu-γGlu-C18 diacid])T
notes: as for B12

Tests used:
human GLP-1 receptor [1] = biological target: T1, human GLP-1 receptor (human, UniProt P43220 24-463); experiment: cell-based or functional assay
human glucagon receptor [2] = biological target: T2, human glucagon receptor (human, UniProt P47871 26-477); experiment: cell-based or functional assay
human GLP-1 receptor [3] = biological target: T1, human GLP-1 receptor; experiment: SPA displacement of [125I]GLP-1(7-36)NH2 from hGLP-1R BHK membranes
Protocol: The GLP-1 receptor binding of each derivatives were determined with competitive binding, displacing [¹²⁵I]GLP-1 bound to GLP-1 receptors expressed in cell membranes associated with wheat germ agglutinin (WGA) scintillation proximity assay (SPA) beads. Each derivative was added in a series of concentrations to isolated membranes comprising the human GLP-1 receptor and displacement of the labelled radioligand was monitored. The receptor binding was reported as the concentration at which half of the labelled ligand is displaced from the receptor, the IC⁵⁰ value.
1. For the receptor binding assay 50 μl of the assay buffer was added to each well of an assay plate. [0588] 2. Test compounds were serially diluted to give the following concentrations: 8×10EE-7 M, 8×10EE-8 M, 8×10EE-9 M, 8×10EE-10 M, 8×10EE-11 M, 8×10EE-12 M and 8×10EE-13 M. Twenty-five μl were added to appropriate wells in the assay plate. [0589] 3. Cell membrane aliquots were thawed and diluted to their working concentration. Fifty μl were added to each well in the assay plate. [0590] 4. WGA SPA beads were suspended in assay buffer at 20 mg/ml. The suspension was diluted to 10 mg/ml in assay buffer just prior to addition to the assay plate. Fifty μl were added to each well in the assay plate. [0591] 5. […] A 25 μl aliquot was reserved for measuring total counts/well. [0592] 6. The assay plate was incubated for 2 h at 30° C. [0593] 7. The assay plate was centrifuged for 10 min. [0594] 8. The assay plate was read in a Perkin Elmer TopCount NXT instrument.

human glucagon receptor [4] = biological target: T2, human glucagon receptor; experiment: SPA displacement of [125I]-glucagon from human glucagon receptor BHK membranes
Protocol: 1. For the receptor binding assay 50 μl of the assay buffer was added to each well of an assay plate. [0603] 2. Test compounds were serially diluted to give the following concentrations: 8×10EE-7 M, 8×10EE-8 M, 8×10EE-9 M, 8×10EE-10 M, 8×10EE-11 M, 8×10EE-12 M and 8×10EE-13 M. Twenty-five μl were added to appropriate wells in the assay plate. [0604] 3. Cell membrane aliquots were thawed and diluted to their working concentration. Fifty μl were added to each well in the assay plate. [0605] 4. WGA SPA beads were suspended in assay buffer at 20 mg/ml. The suspension was diluted to 10 mg/ml in assay buffer just prior to addition to the assay plate. Fifty μl were added to each well in the assay plate. [0606] 5. […] A 25 μl aliquot was reserved for measuring total counts/well. […] 6. The assay plate was incubated for 2 h at 25° C. [0608] 7. The assay plate was centrifuged for 10 min at 1500 rpm. [0609] 8. The assay plate was read in a Perkin Elmer TopCount NXT instrument.

T2 sequence (P47871 26-477): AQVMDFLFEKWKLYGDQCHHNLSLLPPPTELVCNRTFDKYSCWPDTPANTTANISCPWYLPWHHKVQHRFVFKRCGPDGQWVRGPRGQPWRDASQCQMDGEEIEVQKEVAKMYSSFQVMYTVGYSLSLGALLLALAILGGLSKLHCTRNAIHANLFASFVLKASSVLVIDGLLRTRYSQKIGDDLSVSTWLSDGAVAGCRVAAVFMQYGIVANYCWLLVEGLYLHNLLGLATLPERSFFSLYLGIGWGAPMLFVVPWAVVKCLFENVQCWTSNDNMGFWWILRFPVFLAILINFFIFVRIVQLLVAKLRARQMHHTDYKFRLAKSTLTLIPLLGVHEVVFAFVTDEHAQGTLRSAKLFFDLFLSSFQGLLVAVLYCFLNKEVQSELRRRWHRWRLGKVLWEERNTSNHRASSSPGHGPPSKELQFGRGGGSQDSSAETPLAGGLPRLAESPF

Row | Binder | EC50 GLP-1R [pM], CRE luciferase reporter gene assay (human GLP-1 receptor [1]) [pM] | EC50 GlucagonR [pM], CRE luciferase reporter gene assay (human glucagon receptor [2]) [pM] | IC50 (human GLP-1 receptor [3]) [nM] | IC50 (human glucagon receptor [4]) [nM]
1 | B1 | 5 | 40.7 | 0.4 | 3.2
2 | B2 | – | – | 0.2 | 14.1
3 | B3 | – | – | 0.2 | 17.9
4 | B4 | – | – | 1.9 | 80.2
5 | B5 | – | – | 13.1 | 51
6 | B6 | 14.7 | 54.2 | 1.1 | 5.1
7 | B7 | 18.3 | 106 | 0.2 | 11.8
8 | B8 | – | – | 0.5 | 56
9 | B9 | – | – | 3.2 | 31.1
10 | B10 | – | – | 0.9 | 69.5
11 | B11 | – | – | 19 | 43.4
12 | B12 | – | – | 6.9 | 18.8
13 | B13 | – | – | 4.6 | 28.1
